Test results from article PMC8038994, “RNA and DNA G-quadruplexes bind to human dicer and inhibit its activity”.

What was measured:
hDicer PPC cassette = biological target: T1, hDicer PPC cassette (Homo sapiens, UniProt Q9UPY3 753-1068); assay: EMSA; EMSA: 20 mM Tris-HCl pH 7.4, 100 mM KCl, 30 min on ice; 5% or 10% native PAGE at 4 C in 1x TBE; G-rich oligos folded in 50 mM KCl; settings: protein: recombinant, tags: N-terminal 6xHis (pMCSG7), label: 5'-32P
T1 sequence: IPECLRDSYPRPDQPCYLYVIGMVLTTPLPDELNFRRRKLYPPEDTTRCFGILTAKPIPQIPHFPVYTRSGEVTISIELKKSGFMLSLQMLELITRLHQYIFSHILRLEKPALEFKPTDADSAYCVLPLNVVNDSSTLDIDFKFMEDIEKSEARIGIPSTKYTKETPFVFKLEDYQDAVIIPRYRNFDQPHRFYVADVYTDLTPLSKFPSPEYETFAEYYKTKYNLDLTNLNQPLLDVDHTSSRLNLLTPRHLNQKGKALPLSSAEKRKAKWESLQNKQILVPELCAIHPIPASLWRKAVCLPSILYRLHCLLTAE

hDicer [1] = biological target: T2, hDicer (Homo sapiens, UniProt Q9UPY3 1-1922); assay: EMSA; 100, 250 nM hDicer; EMSA: 20 mM Tris-HCl pH 7.4, 100 mM KCl, 30 min on ice; 5% or 10% native PAGE at 4 C in 1x TBE; G-rich oligos folded in 50 mM KCl; settings: protein: recombinant; label: 5'-32P; G4
T2 sequence (Q9UPY3 whole entry): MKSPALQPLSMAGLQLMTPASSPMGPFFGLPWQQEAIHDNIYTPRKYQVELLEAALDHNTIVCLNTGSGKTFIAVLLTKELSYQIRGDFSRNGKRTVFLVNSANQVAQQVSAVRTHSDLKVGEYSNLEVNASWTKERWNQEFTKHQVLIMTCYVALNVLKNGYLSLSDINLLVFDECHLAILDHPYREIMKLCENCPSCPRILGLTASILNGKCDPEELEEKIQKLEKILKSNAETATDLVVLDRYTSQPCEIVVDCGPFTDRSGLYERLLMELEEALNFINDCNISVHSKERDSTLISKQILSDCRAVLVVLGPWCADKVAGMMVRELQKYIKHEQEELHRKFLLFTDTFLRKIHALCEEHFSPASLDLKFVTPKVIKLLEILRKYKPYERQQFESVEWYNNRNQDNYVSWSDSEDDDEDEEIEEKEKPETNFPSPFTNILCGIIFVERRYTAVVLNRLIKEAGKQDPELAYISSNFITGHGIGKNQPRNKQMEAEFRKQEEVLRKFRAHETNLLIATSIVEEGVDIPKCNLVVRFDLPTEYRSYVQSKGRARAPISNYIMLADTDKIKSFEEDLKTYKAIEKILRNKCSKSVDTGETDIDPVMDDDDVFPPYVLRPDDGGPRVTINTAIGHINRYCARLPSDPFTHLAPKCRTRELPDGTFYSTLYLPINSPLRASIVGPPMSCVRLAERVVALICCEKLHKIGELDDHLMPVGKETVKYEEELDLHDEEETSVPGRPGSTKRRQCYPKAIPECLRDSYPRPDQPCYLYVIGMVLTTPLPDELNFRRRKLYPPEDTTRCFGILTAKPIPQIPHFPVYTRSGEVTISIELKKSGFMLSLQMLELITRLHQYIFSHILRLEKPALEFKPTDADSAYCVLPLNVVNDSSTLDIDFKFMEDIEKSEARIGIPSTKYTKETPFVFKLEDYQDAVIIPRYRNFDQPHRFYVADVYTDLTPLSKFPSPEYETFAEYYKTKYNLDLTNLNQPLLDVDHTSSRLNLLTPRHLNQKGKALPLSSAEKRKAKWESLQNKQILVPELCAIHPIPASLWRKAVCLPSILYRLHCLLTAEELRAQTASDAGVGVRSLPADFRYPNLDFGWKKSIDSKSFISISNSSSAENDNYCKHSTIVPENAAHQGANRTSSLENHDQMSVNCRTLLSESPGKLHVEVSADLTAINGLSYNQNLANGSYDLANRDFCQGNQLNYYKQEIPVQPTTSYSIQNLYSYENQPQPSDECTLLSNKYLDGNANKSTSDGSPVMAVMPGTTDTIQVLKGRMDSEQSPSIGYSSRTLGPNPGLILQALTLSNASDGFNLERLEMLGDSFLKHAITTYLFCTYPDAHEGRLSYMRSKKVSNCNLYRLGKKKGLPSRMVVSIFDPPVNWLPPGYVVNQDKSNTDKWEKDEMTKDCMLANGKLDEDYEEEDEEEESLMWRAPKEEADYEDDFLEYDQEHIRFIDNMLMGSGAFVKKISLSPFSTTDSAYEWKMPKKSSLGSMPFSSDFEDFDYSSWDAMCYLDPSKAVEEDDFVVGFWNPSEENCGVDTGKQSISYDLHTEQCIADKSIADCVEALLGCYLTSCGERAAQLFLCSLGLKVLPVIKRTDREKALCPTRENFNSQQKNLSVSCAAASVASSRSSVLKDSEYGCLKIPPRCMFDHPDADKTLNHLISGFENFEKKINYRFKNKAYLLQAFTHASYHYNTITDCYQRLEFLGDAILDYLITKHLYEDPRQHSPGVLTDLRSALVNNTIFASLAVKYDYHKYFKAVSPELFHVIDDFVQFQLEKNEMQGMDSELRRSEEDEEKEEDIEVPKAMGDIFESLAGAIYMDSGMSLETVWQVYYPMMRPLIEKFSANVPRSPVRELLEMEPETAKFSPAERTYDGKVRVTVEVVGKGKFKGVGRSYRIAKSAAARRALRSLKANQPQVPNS

hDicer [2] = biological target: T2, hDicer; assay: EMSA; 250 nM hDicer; EMSA: 20 mM Tris-HCl pH 7.4, 100 mM KCl, 30 min on ice; 5% or 10% native PAGE at 4 C in 1x TBE; G-rich oligos folded in 50 mM KCl; settings: protein: recombinant; label: 5'-32P; G4 dimer of bimolecular G-quadruplexes (PDB 2M18)

B1: LIN21 (ssRNA)
RNA: UCGAAGUAUUCCGCGUACGUG
Binder B1 has a Kd (hDicer PPC cassette) of about 46 nM.

B2: QU14 (structured_RNA)
RNA: GGAGGUUUUGGAGG
B2: binds (hDicer [1]).

B3: pre-mir-21 (structured_RNA)
RNA: AGCUUAUCAGACUGAUGUUGACUGUUGAAUCUCAUGGCAACACCAGUCGAUGGGCUGU
B3 showed a Kd (hDicer PPC cassette; hairpin) of about 205 nM.

B4: TER10 (structured_RNA)
RNA: GGGUUAGGGU
B4: binds (hDicer [2]).

B5: G4U4G4 (structured_RNA)
RNA: GGGGUUUUGGGG
B5 was tested, and the Kd (hDicer PPC cassette; G4) was about 10 nM.

B6: G4T4G4 (structured_DNA)
DNA: GGGGTTTTGGGG
B6 gave a Kd (hDicer PPC cassette; G4 bimolecular, 2 strand copies (PDB 1JPQ)) of about 369 nM.
